The results in this text go back to US20080305041A1, “Pf4 Pharmacophores and Their Uses” (BIOQUANTA CORP., priority 2004, published 2008).

Where a chain is given by its changes, count along the chain named. Numbers in names are those of the source.

The test system of assay [1] is PF4 receptor. Nature of the assay: PF4 receptor binding / competition of PF4-derived peptides.
For assay [2], the system named is PF4 receptor. Description: PF4 receptor activation by PF4-derived peptides.
In assay [3] the test system is HUVEC. Description: Angiogenic activity of mutant PF4 polypeptides in HUVEC cells. Type of assay: cell-based, Human. To be noted: for antiangiogenic properties/activity of PF4 (effect of the mutation): Table 4 column Function. As to the method:
(§1) Inhibition of DNA synthesis was measured by [^3H]-thymidine incorporation assay. Cells were plated at 15,000 cells per well in a 24 well-plate in 0.5 ml medium containing 2.5% FCS and allowed to attach for 4 hours at 37° C. Proliferation was then induced by addition of 10 ng/ml of FGF-2, VEGF165 or VEGF121. Increasing concentrations of purified recombinant PF4 proteins were added to some wells and HUVEC were further incubated for 48 hours. [^3H]-thymidine (1 μCi/well) was added during the last 20 hours of incubation. Cells were washed twice with PBS and treated with ice-cold 10% (w/v) trichloroacetic acid for 30 minutes. The resulting precipitates were solubilized with 1 M NaOH and incorporated radioactivity was measured in a Beckman LS-6500 multi-purpose scintillation counter.
HUVEC migration was evaluated in a modified Boyden chamber assay. Transwell cell culture chamber inserts with porous polycarbonate filters ([…]) were coated with 0.2% gelatin. HUVEC suspended in medium supplemented with 2.5% FCS were added to the inserts at 4×10^4 cells per well. The inserts were placed over chambers containing a chemotactic stimulus (10 ng/ml VEGF165), and cells were allowed to migrate for 4 hours at 37° C. in a CO2 incubator. For inhibition experiments, recombinant PF4 proteins were added to both the lower and upper chambers. After incubation, filters were rinsed with PBS, fixed with 1% paraformaldehyde and stained with hematoxyline of Harris (EMD Chemicals Inc. Gibbstown, N.J.).
(§2) The upper surfaces of the filters was scraped with a cotton swab to remove the nonmigrant cells. The […] in a optical microscope at high powered (×200) magnification, and the number of cells within the microscope visualization field was recorded. Each experimental point was performed in triplicate, and 20 visual fields were analyzed per filter.
Next, the PF4 surface was mapped using site-directed mutagenesis. In particular, a series of mutant PF4 polypeptides was generated, and their angiogenic activity in HUVEC cells was investigated using assays such as those described in Section 6.1, above. Table 3 below lists amino acid sequences of the PF4 polypeptides generated, along with each polypeptide designation and sequence identification number (SEQ ID NO.). The first sequence, which is designated WTPF4, corresponds to the wild-type, mature PF4 amino acid sequence that is also depicted in FIG. 1C (SEQ ID NO:1). The other sequences depicted in Table 3 comprise one or more amino acid substitutions, indicated by bold-faced, underlined type in the amino acid sequence.

For assay [4], the system named is HUVEC. Nature of the assay: HUVEC migration assay (modified Boyden chamber). Type of assay: cell-based, Human. The procedure:
(§3) Human umbilical vein endothelial cells (HUVEC) were isolated by collagenase (Roche Diagnostics) digestion as described previously (Jaffe et al., J Clin Invest. 1973; 85(11):2745-56).
(§4) Cells were grown in M199 medium containing 15% fetal calf serum (FCS), 5% human serum, 2 mM glutamine, 50 U/ml penicillin, 50 μg/ml streptomycin, 2.5 μg/ml amphotericin B, and 15 mM HEPES. Cultures were maintained at 37° C. amd 5% CO2 in humidified atmosphere. Every 3-4 days, the cultures were harvested by trypsin treatment, diluted, replated and grown to confluence. HUVEC grown until confluence from the second or third passage are preferably used for experiments described here.
HUVEC migration was evaluated in a modified Boyden chamber assay. Transwell cell culture chamber inserts with porous polycarbonate filters ([…]) were coated with 0.2% gelatin. HUVEC suspended in medium supplemented with 2.5% FCS were added to the inserts at 4×10^4 cells per well. […]
as §2

Assay [5] concerns HUVEC. Description: Endothelial cell proliferation assay ([3H]-thymidine incorporation). The assay is classed as cell-based, Human. To be noted: stimulus not given. As to the method: as §3, §4
as §1, with “Cells were washed twice with PBS and treated with ice-cold 10% (w/v) trichloroacetic acid for 30 minutes.” left out

Turning to “P34-53: peptide PHSPTAQLIATLKNGRKISL (SEQ ID NO:159), derived from residues 34-53 of mature PF4 [Mutant P34-53]”, the “competition against P34-56 for target binding” value in the assay with PF4 receptor [1] (competitor P34-56) is listed as “effectively competes”. Besides, the “competition with PF4 for binding to the PF4 receptor” value in the assay on PF4 receptor [1] (competitor PF4) is “effectively competes”. Also, the “activation of PF4 receptor” value with PF4 receptor [2] was “does not activate”.
Turning to “P34-56: peptide PHSPTAQLIATLKNGRKISLDLQ (SEQ ID NO:157), derived from residues 34-56 of mature PF4 [Mutant P34-56]”, the “binding to PF4 receptor” value in the assay on PF4 receptor [1] is recorded as “bind to”. Moreover, the “activation of PF4 receptor” value in the assay with PF4 receptor [2] is “activate”.
Regarding “P35-53: peptide PSPTAQLIATLKNGRKISL (SEQ ID NO:160), P34-53 with His2 removed [Mutant P35-53]”, the “binding to PF4 receptor” value in the assay with PF4 receptor [1] was “does not bind to”. The “activation of PF4 receptor” value in the assay with PF4 receptor [2] is on record as “does not bind to or activate”.
Turning to “P37-56: peptide PTAQLIATLKNGRKISLDLQ (SEQ ID NO:158), P34-56 without capping box [Mutant P37-56]”, in the assay with PF4 receptor [2], the “activation of PF4 receptor” value is listed as “does not activate”.

B1: PF4-M10H: mutant PF4 polypeptide SEQ ID NO:19; single mutant T47A, without HBD (protein, listed as Homo sapiens)
chain: EAEEDGDLQCLCVKTASQVRPRHITSLEVIKAGPHCPTAQLIATLKNGRKICLDLQAPLYQEIIQELLES
In the case of B1, in the assay with HUVEC [3], the “antiangiogenic properties/activity of PF4 (effect of the mutation)” value (from here on “antiangiogenic properties/activity”) is “Mutation does not suppress”.

B2: PF4-M1: mutant PF4 polypeptide SEQ ID NO:2; heparan sulfate binding domain (HBD) absent (protein, listed as Homo sapiens)
chain: B1 chain with A16T
Take B2: in the assay with HUVEC [4], the “inhibition of cell migration (HUVEC)” value is reported as “PF4-M1 also inhibits cell”. For the same molecule, in the assay on HUVEC [3], the “antiangiogenic properties/activity” value was “PF4-M1 is antiangiogenic”.

B3: PF4-M13H: mutant PF4 polypeptide SEQ ID NO:25; single mutant V50S, without HBD (protein, listed as Homo sapiens)
chain: B1 chain with A16T, V19S
Turning to B3, the “antiangiogenic properties/activity” value with HUVEC [3] is “Mutation does not suppress”.

B4: PF4-M5H: mutant PF4 polypeptide SEQ ID NO:10; triple mutant L42S, V44Q, T47A, without HBD (protein, listed as Homo sapiens)
chain: B1 chain with L11S, V13Q
For the molecule B4, the “antiangiogenic properties/activity” value in the assay with HUVEC [3] is recorded as “Decreases the antiangiogenic”.

B5: PF4-M3: mutant PF4 polypeptide SEQ ID NO:5; DLQ motif replaced by IL8-like motif, carrying HBD (protein, listed as Homo sapiens)
chain: B1 chain with Q9R, A16T, Q61K, E62K, Q65K, E66K
On to B5, for which, in the assay with HUVEC [3], the “effect on HUVEC compared with WTPF4” value is given as “sulfate. It has the same effect”.

B6: PF4-M2: mutant PF4 polypeptide SEQ ID NO:3; tests importance of Cys residues (protein, listed as Homo sapiens)
chain: B1 chain with C10S, A16T, C36S, Q61K, E62K, Q65K, E66K
In the case of B6, the “antiangiogenic properties/activity” value with HUVEC [3] is recorded as “Complete loss of activity due”.

B7: PF4-M5: mutant PF4 polypeptide SEQ ID NO:9; triple mutant L42S, V44Q, T47A carrying HBD (protein, listed as Homo sapiens)
chain: B1 chain with L11S, V13Q, Q61K, E62K, Q65K, E66K
In the case of B7, in the assay with HUVEC [3], the “antiangiogenic properties/activity” value was “Mutation decreases the”.

B8: PF4-M6: mutant PF4 polypeptide SEQ ID NO:11; triple mutant Q49A, V50S, H54A carrying HBD (protein, listed as Homo sapiens)
chain: B1 chain with A16T, Q18A, V19S, H23A, Q61K, E62K, Q65K, E66K
Consider B8, for which, in the assay on HUVEC [3], the “antiangiogenic properties/activity” value is “Mutation decreases the”.

B9: PF4-M2H: mutant PF4 polypeptide SEQ ID NO:4; tests importance of Cys residues (protein, listed as Homo sapiens)
chain: B1 chain with C10S, A16T, C36S
Regarding B9, the “antiangiogenic properties/activity” value in the assay with HUVEC [3] was “Complete loss of activity due”.

B10: PF4-M3H: mutant PF4 polypeptide SEQ ID NO:6; PF4-M3 mutant without HBD (protein, listed as Homo sapiens)
chain: B1 chain with Q9R, A16T
As for B10, the “inhibition of the proliferation of HUVEC cells” value in the assay with HUVEC [5] is on record as “This mutant cannot inhibit”. Moreover, the “inhibition of cell migration (HUVEC)” value in the assay with HUVEC [4] is on record as “This mutant cannot inhibit”. Moreover, the “antiangiogenic properties/activity” value in the assay on HUVEC [3] was “cancels the antiangiogenic”.
